According to US20110097317A1:

Biological target: thioredoxin (TRX), endogenous in bovine aortic endothelial cells (BAEC) (bovine) (UniProt O97680)
Test: cell-based or functional assay

UniProt O97680, sequence (O97680 2-105 limits assumed): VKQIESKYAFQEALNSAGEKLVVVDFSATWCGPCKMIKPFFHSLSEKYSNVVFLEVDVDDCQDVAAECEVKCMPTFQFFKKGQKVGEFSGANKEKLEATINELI

- TNF-mediated activation of JNK (phospho-specific immunoblot) in BAEC over-expressing TXNIP: 33%
- TNF-mediated activation of p38 (phospho-specific immunoblot) in BAEC over-expressing TXNIP: 23%
Substance: Thioredoxin interacting protein (TXNIP) over-expressed from pcDNA3.1-TXNIP in BAEC
